Laboratory results taken from US7595158B2, “Bcl2L12 polypeptide activators and inhibitors” (Dana-Farber Cancer Institute, Inc., priority 2003, dated 2009).

B1: R-RAS: R-RAS polypeptide over-expressed from expression vector; candidate gene of the 19q13.3 amplicon (protein, UniProt P10301 1-215, looked up)
Ras-related protein R-Ras: MSSGAASGTGRGRPRGGGPGPGDPPPSETHKLVVVGGGGVGKSALTIQFIQSYFVSDYDPTIEDSYTKICSVDGIPARLDILDTAGQEEFGAMREQYMRAGHGFLLVFAINDRQSFNEVGKLFTQILRVKDRDDFPVVLVGNKADLESQRQVPRSEASAFGASHHVAYFEASAKLRLNVDEAFEQLVRAVRKYQEQELPPSPPSAPRKKGGGCPC
B2: IRF3: IRF3 polypeptide expressed from expression vector; candidate gene of the 19q13.3 amplicon (protein, UniProt Q14653 1-427, looked up)
Interferon regulatory factor 3: MGTPKPRILPWLVSQLDLGQLEGVAWVNKSRTRFRIPWKHGLRQDAQQEDFGIFQAWAEATGAYVPGRDKPDLPTWKRNFRSALNRKEGLRLAEDRSKDPHDPHKIYEFVNSGVGDFSQPDTSPDTNGGGSTSDTQEDILDELLGNMVLAPLPDPGPPSLAVAPEPCPQPLRSPSLDNPTPFPNLGPSENPLKRLLVPGEEWEFEVTAFYRGRQVFQQTISCPEGLRLVGSEVGDRTLPGWPVTLPDPGMSLTDRGVMSYVRHVLSCLGGGLALWRAGQWLWAQRLGHCHTYWAVSEELLPNSGHGPDGEVPKDKEGGVFDLGPFIVDLITFTEGSGRSPRYALWFCVGESWPQDQPWTKRLVMVKVVPTCLRALVEMARVGGASSLENTVDLHISNSHPLSLTSDQYKAYLQDLVEGMDFQGPGES
B3: Bcl2L12-ΔBH2ΔP-r: V5 tagged truncation mutant of human Bcl2L12, human amino acid sequence 1-267 (protein)
chain: MGRPAGLFPPLCPFLGFRPEACWERHMQIERAPSVPPFLRWAGYRPGPVRRRGKVELIKFVRVQWRRPQVEWRRRRWGPGPGASMAGSEELGLREDTLRVLAAFLRRGEAAGSPVPTPPRSPAQEEPTDFLSRLRRCLPCSLGRGAAPSESPRPCSLPIRPCYGLEPGPATPDFYALVAQRLEQLVQEQLKSPPSPELQGPPSTEKEAILRRLVALLEEEAEVINQKLASDPALRSKLVRLSSDSFARLVELFCSRDDSSRPSRACP
modifications: left off: small tags and cut ends
B4: Bcl2L12-ΔBH2ΔP-rΔIHD: V5 tagged truncation mutant of human Bcl2L12, human amino acid sequence 1-167 (protein)
chain: MGRPAGLFPPLCPFLGFRPEACWERHMQIERAPSVPPFLRWAGYRPGPVRRRGKVELIKFVRVQWRRPQVEWRRRRWGPGPGASMAGSEELGLREDTLRVLAAFLRRGEAAGSPVPTPPRSPAQEEPTDFLSRLRRCLPCSLGRGAAPSESPRPCSLPIRPCYGLEP
modifications: left off: small tags and cut ends

Tests used:
[1] = system: Ink4a-/-/Arf-/- astrocytes; experiment: Growth of transduced Ink4a-/-/Arf-/- astrocytes under normal and low-serum conditions; format: cell-based, mouse; settings: over-expression, 10% FBS, vs vector only
Text: The Bcl2L12-V5, R-RAS, and IRF3 nucleic acid sequences were cloned into expression vectors. Controls included expression vectors containing EGFR or Bcl2 nucleic acid sequences. The encoded polypeptides were expressed in primary astrocytes and tested for cell growth, transformation, and apoptosis activities. Primary astrocytes deficient for Ink4a/Arf (e.g., Ink4a^−/−/Arf^−/− astrocytes) were used given the prominence of this tumor suppressor lesion in advanced human gliomas. The following was performed to assess growth characteristics under normal growth conditions. Mouse Ink4a^−/−/Arf^−/− astrocytes were retro-virally transduced with pBabe vector alone; Bcl2L12-V5 nucleic acid; R-RAS nucleic acid; IRF3 nucleic acid; EGFR* nucleic acid; or Bcl2 nucleic acid. After retro-viral infection, transduced mouse Ink4a^−/−/Arf^−/− astrocytes were subjected to puromycin (2 μg/mL) selection for four days and plated at a density of 1×10^5 cells/10 cm dish using 10% FBS-DMEM medium. All transduced Ink4a^−/−/Arf^−/− astrocytes were counted each day for five days to determine cell numbers (mean±S.D.; three independent experiments with each being performed in triplicate).
The following was performed to assess growth characteristics under low-serum growth conditions. Retro-virally transduced mouse Ink4a^−/−/Arf^−/− astrocytes (1×10^6 cells/10 cm dish) were allowed to attach onto plates in 10% FBS-DMEM medium for five hours. After five hours, the medium was changed to 0.1% FBS-DMEM, and the cells were allowed to grow for three days. After three days in 0.1% FBS, the cells were counted to determine cell numbers (mean±S.D.; three independent experiments with each being performed in triplicate). The number of Ink4a^−/−/Arf^−/− astrocytes infected with pBabe-vector was set to 1.0.

[2] = system: Ink4a-/-/Arf-/- astrocytes; experiment: Annexin V staining of STS-treated Ink4a/Arf deficient astrocytes (FACS); format: cell-based, mouse; settings: 100 nM staurosporine one day; control cultures about 17-22 percent
Procedure: The following experiments were performed to determine whether the Bcl2L12 polypeptide influenced cell survival or apoptosis. Ink4a^−/−/Arf^−/− astrocytes retro-virally infected with vector alone (pBabe) or vector containing Bcl2 nucleic acid, Bcl2L12-V5 nucleic acid, R-RAS nucleic acid, or IRF3 nucleic acid were […] After this one day incubation, the cells were stained with annexin V (Roche). Annexin V-positive cells were determined by FACScan analysis (mean±S.D.; three independent experiments with each being performed in triplicate).
After STS treatment, the cells were analyzed for apoptosis by assessing annexin V binding and DNA fragmentation using a FACS based analysis.

[3] = system: Ink4a/Arf deficient embryonic fibroblasts; experiment: Colony formation of Ink4a/Arf deficient embryonic fibroblasts; format: cell-based; settings: about 300 cells per 6 well plate; vector only about 13
Procedure: In addition, Ink4a/Arf deficient embryonic fibroblasts were transfected with vector only or a vector encoding a Bcl2L12 polypeptide or Bcl2 polypeptide. Once the cells were transfected, the number of colonies formed in cultures (about 300 cells per 6 well plate) was determined. Expression of Bcl2L12 polypeptide promoted growth of Ink4a/Arf deficient embryonic fibroblasts. […] In a similar experiment, Ink4a/Arf deficient embryonic fibroblasts were co-transfected with a vector encoding H-RasV12 and either a vector only, vector encoding Bcl2L12 polypeptide, or a vector encoding Bcl2 polypeptide. Once the cells were transfected, the number of foci formed per transfection was determined. Expression of Bcl2L12 polypeptide or Bcl2 polypeptide in combination with H-RasV12 expression promoted growth of Ink4a/Arf deficient embryonic fibroblasts (about 1.5 to 2 fold more foci per transfection for cells expressing Bcl2L12 polypeptide or Bcl2 polypeptide compared to control pBabe cells).

[4] = system: Ink4a-/-/Arf-/- mouse embryo fibroblasts; experiment: Focus formation in cooperation with activated H-Ras in Ink4a-/-/Arf-/- mouse embryo fibroblasts; format: cell-based; settings: cotransfected with H-Ras G12V, vs pBabe
Procedure: The oncogenic potential of these genes was determined directly through their capacity to cooperate with activated H-RAS to effect the malignant transformation of primary Ink4a^−/−/Arf^−/− cells. Briefly, Ink4a^−/−/Arf^−/− mouse embryo fibroblasts (MEFs) were seeded at 8×10^5 cells/10 cm dish and grown in 10% FBS-DMEM for one day and then cotransfected with 1.5 μg of activated H-Ras^G12V and 1.5 μg of either pBabe, Bcl2, Bcl2L12-V5, R-RAS, or IRF3 nucleic acid using Lipopectamine-plus reagent (Invitrogen). One day after cotransfection, each Ink4a^−/−/ARF^−/− MEF was splitted 1:3 ratio and refed with 10% FBS-DMEM every 3-4 day for ten days. After staining cells with crystal violet solution, foci were counted to determine transformation efficiency (mean±S.D.; three independent experiments with each being done in duplicate). The numbers of foci from cells cotransfected with H-Ras^G12V and pBabe vector were set to 100%.
In addition, Ink4a/Arf deficient embryonic fibroblasts were transfected with vector only or a vector encoding a Bcl2L12 polypeptide or Bcl2 polypeptide. Once the cells were transfected, the number of colonies formed in cultures (about 300 cells per 6 well plate) was determined. Expression of Bcl2L12 polypeptide promoted growth of Ink4a/Arf deficient embryonic fibroblasts. […] Once the cells were transfected, the number of foci formed per transfection was determined. […]

[5] = biological target: T1, caspase-9 (Homo sapiens, UniProt P55211); experiment: Caspase-9 in vitro cleavage and LEHDase activity assay with 293T cells; format: cell-based; settings: V5 tagged constructs; vector only about 420 RFUs
T1 construct: endogenous in cells; host or cells: 293T
T1 sequence (P55211 1-416): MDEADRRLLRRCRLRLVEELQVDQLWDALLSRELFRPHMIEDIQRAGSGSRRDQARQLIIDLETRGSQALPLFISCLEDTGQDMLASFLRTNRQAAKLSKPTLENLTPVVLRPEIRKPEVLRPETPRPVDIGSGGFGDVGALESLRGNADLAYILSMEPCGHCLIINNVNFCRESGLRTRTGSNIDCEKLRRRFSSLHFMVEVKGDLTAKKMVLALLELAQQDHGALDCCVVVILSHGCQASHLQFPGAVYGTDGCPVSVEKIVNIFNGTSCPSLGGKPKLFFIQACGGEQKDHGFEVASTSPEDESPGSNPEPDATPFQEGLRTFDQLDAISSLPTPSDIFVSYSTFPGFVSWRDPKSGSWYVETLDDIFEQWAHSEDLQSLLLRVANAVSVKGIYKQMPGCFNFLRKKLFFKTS
Text: To determine if Bcl2L12 polypeptides could-regulate-the activity of caspase-9, a cell-free system was used in which exogenously added dATP and cytochrome c induced the activation of [^35S] labeled in vitro translated caspase-9. […] To confirm the inhibitory effect of Bcl2L12 polypeptides on caspase-9 maturation, 293T cells ectopically expressing Bcl2L12-V5 polypeptides where either subjected to an in vitro cleavage assay or to an activity assay using the caspase-9 specific fluorogenic peptide LEHD.
In addition, vectors encoding V5 tagged wild-type human Bcl2L12 polypeptide (WT; human amino acid sequence 1-334) and three V5 tagged truncation mutants of human Bcl2L12 (Bcl2L12-ΔBH2 polypeptide, human amino acid sequence 1-310; Bcl2L12-ΔBH2ΔP-r polypeptide, human amino acid sequence 1-267; and Bcl2L12-ΔBH2ΔP-rΔIHD polypeptide, human amino acid sequence 1-167) were made (FIG. 4A). These vectors expressed the appropriately sized polypeptides when translated in vitro or when expressed in 293T cells.

| Molecule | growth / proliferation under normal growth conditions [1] | annexin-V positive cells [2] | number of colonies [3] | RAS-induced focus formation increase [4] | caspase-9 activity [5] |
| --- | --- | --- | --- | --- | --- |
| Bcl2: Bcl2 polypeptide expressed from control expression vector [reference compound] | failed to exhibit a pro-proliferative response | 2-3% | about 10 colonies | – | – |
| B1 | moderate increase in proliferation | 10-20% | – | did not exhibit any cooperative activity | – |
| B2 | failed to exhibit a pro-proliferative response | 14-16% | – | did not exhibit any cooperative activity | – |
| B3 | – | – | – | – | about 130 RFUs |
| B4 | – | – | – | – | about 160 RFUs |
